Earlier results on 1 substance are cited in patent publication US20250197888A1, “NOVEL RECOMBINANT VECTOR AND USE THEREOF” (CELL & BRAIN CO., LTD., priority 2022, published 2025).

The conditions of the series: A168H mutant; Balzarini et al., 2006.

For “mutant HSV-TK: HSV thymidine kinase in which alanine at position 168 is substituted with histidine”, the “kinase activity relative to wild-type HSV-TK” value is “about 4 times”.
